Here are results for 55 molecules from paper PMC12416549 (2024).

Substitutions are numbered along the chain they refer to. Names and notes keep the numbering of the source.

T1: TNFR1 (Homo sapiens, UniProt P19438)
T1 chain: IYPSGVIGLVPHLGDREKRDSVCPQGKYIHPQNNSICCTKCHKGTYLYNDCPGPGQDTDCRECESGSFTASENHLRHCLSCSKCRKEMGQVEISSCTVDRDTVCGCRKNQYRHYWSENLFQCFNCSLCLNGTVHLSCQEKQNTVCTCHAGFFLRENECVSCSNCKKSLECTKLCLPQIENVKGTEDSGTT

B1: E22T (designed binder)
chain: SMEEEVEKAAKEYEKKKKEAITKHLEKLKAKDKEAAERFLKELEEAAKEYAKDEAKTMSEEEAKRRAKKYKEKVLLSELSEEEQKEIKEAEEKLVRTILKYVEEAAK
B2: Q84G (designed binder)
chain: B1 chain with T22E, Q84G
B3: E4T (designed binder)
chain: B1 chain with E4T, T22E
B4: S59T (designed binder)
chain: B1 chain with T22E, S59T
B5: Y70E (designed binder)
chain: B1 chain with T22E, Y70E
B6: K18L (designed binder)
chain: B1 chain with K18L, T22E
B7: K31W (designed binder)
chain: B1 chain with T22E, K31W
B8: A106S (designed binder)
chain: B1 chain with T22E, A106S
B9: H24Y (designed binder)
chain: B1 chain with T22E, H24Y
B10: E42A (designed binder)
chain: B1 chain with T22E, E42A
B11: A10T (designed binder)
chain: B1 chain with A10T, T22E
B12: I21L (designed binder)
chain: B1 chain with I21L, T22E
B13: Y101F (designed binder)
chain: B1 chain with T22E, Y101F
B14: E92H (designed binder)
chain: B1 chain with T22E, E92H
B15: L43D (designed binder)
chain: B1 chain with T22E, L43D
B16: L40A (designed binder)
chain: B1 chain with T22E, L40A
B17: K41A (designed binder)
chain: B1 chain with T22E, K41A
B18: A9M (designed binder)
chain: B1 chain with A9M, T22E
B19: E4H (designed binder)
chain: B1 chain with E4H, T22E
B20: A90P (designed binder)
chain: B1 chain with T22E, A90P
B21: S77A (designed binder)
chain: B1 chain with T22E, S77A
B22: E37M (designed binder)
chain: B1 chain with T22E, E37M
B23: Y70K (designed binder)
chain: B1 chain with T22E, Y70K
B24: K31A (designed binder)
chain: B1 chain with T22E, K31A
B25: E3D (designed binder)
chain: B1 chain with E3D, T22E
B26: K69E (designed binder)
chain: B1 chain with T22E, K69E
B27: K41P (designed binder)
chain: B1 chain with T22E, K41P
B28: K15H (designed binder)
chain: B1 chain with K15H, T22E
B29: K23L (designed binder)
chain: B1 chain with T22E, K23L
B30: E60L (designed binder)
chain: B1 chain with T22E, E60L
B31: I87F (designed binder)
chain: B1 chain with T22E, I87F
B32: L28I (designed binder)
chain: B1 chain with T22E, L28I
B33: K8N (designed binder)
chain: B1 chain with K8N, T22E
B34: K33Q (designed binder)
chain: B1 chain with T22E, K33Q
B35: A63H (designed binder)
chain: B1 chain with T22E, A63H
B36: K17F (designed binder)
chain: B1 chain with K17F, T22E
B37: E62W (designed binder)
chain: B1 chain with T22E, E62W
B38: E81V (designed binder)
chain: B1 chain with T22E, E81V
B39: E62Q (designed binder)
chain: B1 chain with T22E, E62Q
B40: E89Y (designed binder)
chain: B1 chain with T22E, E89Y
B41: E86Y (designed binder)
chain: B1 chain with T22E, E86Y
B42: Y50P (designed binder)
chain: B1 chain with T22E, Y50P
B43: V95M (designed binder)
chain: B1 chain with T22E, V95M
B44: S59F (designed binder)
chain: B1 chain with T22E, S59F
B45: E78I (designed binder)
chain: B1 chain with T22E, E78I
B46: E22A (designed binder)
chain: B1 chain with T22A
B47: K52E (designed binder)
chain: B1 chain with T22E, K52E
B48: E78H (designed binder)
chain: B1 chain with T22E, E78H
B49: D32Y (designed binder)
chain: B1 chain with T22E, D32Y
B50: E3C (designed binder)
chain: B1 chain with E3C, T22E
B51: E62C (designed binder)
chain: B1 chain with T22E, E62C
B52: I21W (designed binder)
chain: B1 chain with I21W, T22E
B53: K52H (designed binder)
chain: B1 chain with T22E, K52H
B54: A55Y (designed binder)
chain: B1 chain with T22E, A55Y
B55: A36V (designed binder)
chain: B1 chain with T22E, A36V

This experiment has as its target T1, TNFR1. Briefly: yeast display SC50.
B1: the “apparent Kd (screen)” value was 0.539 nM. With B2, the “apparent Kd (screen)” value came to 12.5 nM. With B3 the figure was 0.446 nM. Take B4: the “apparent Kd (screen)” value came out at 1.54 nM.

On to B5, for which the “apparent Kd (screen)” value stood at 0.718 nM. B6: the “apparent Kd (screen)” value came out at 1.69 nM.

As to B7, the “apparent Kd (screen)” value stood at 0.79 nM. As to B8, the “apparent Kd (screen)” value was 0.79 nM. Consider B9, for which the “apparent Kd (screen)” value came out at 1.69 nM. Consider B10, for which the “apparent Kd (screen)” value was 10.4 nM. Turning to B11, the “apparent Kd (screen)” value is 0.446 nM.

On to B12, for which the “apparent Kd (screen)” value is 1.16 nM.

Take B13: the “apparent Kd (screen)” value was 0.49 nM.

For B14, the “apparent Kd (screen)” value amounted to 3 nM. Turning to B15, the “apparent Kd (screen)” value was 6.43 nM.

As to B16, the “apparent Kd (screen)” value was found to be 0.446 nM. Regarding B17, the “apparent Kd (screen)” value is 0.869 nM.

As for B18, the “apparent Kd (screen)” value came to 0.446 nM. With B19, the “apparent Kd (screen)” value is 1.4 nM.

Turning to B20, the “apparent Kd (screen)” value turned out to be 26.9 nM. B21: the “apparent Kd (screen)” value was found to be 0.49 nM. With B22 the figure was 0.718 nM; with B23, 0.446 nM; with B24, 0.718 nM.

Take B25: the “apparent Kd (screen)” value was 2.48 nM.

In the case of B26, the “apparent Kd (screen)” value is 0.593 nM. With B27 the figure was 2.48 nM. As for B28, the “apparent Kd (screen)” value is 0.49 nM. Regarding B29, the “apparent Kd (screen)” value turned out to be 0.79 nM. Consider B30, for which the “apparent Kd (screen)” value came to 0.446 nM. With B31 the figure was 5.84 nM; with B32, 1.86 nM; with B33, 0.718 nM. For B34, the “apparent Kd (screen)” value worked out at 0.869 nM. With B35 the figure was 4.39 nM. With B36 the figure was 0.446 nM; with B37, 0.956 nM; with B38, 0.446 nM.

Turning to B39, the “apparent Kd (screen)” value is 0.79 nM. For the molecule B40, the “apparent Kd (screen)” value was determined as 2.25 nM.

With B41, the “apparent Kd (screen)” value was 1.4 nM.

B42: the “apparent Kd (screen)” value stood at 4.39 nM. With B43 the figure was 10.4 nM.

As for B44, the “apparent Kd (screen)” value worked out at 7.07 nM. As for B45, the “apparent Kd (screen)” value stood at 0.49 nM. With B46 the figure was 0.539 nM; with B47, 0.446 nM; with B48, 0.49 nM. As to B49, the “apparent Kd (screen)” value was determined as 13.8 nM. In the case of B50, the “apparent Kd (screen)” value worked out at 7.07 nM. With B51 the figure was 2.73 nM; with B52, 0.49 nM; with B53, 0.956 nM.

As for B54, the “apparent Kd (screen)” value worked out at 10.4 nM. In the case of B55, the “apparent Kd (screen)” value came out at 0.446 nM.
